From patent US20030148484A1 (published 2003)

Biological target: T1, Streptavidin (streptavidin column) (UniProt P22629 37-163, limits assumed)
T1 construct: Immobilised on column matrix
Assay: affinity column (streptavidin column without kappa)

T1 sequence (P22629 37-163 limits assumed): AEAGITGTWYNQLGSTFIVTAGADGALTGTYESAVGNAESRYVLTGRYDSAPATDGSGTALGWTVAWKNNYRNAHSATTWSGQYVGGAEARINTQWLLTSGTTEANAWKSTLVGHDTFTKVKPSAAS

B1: LHL (growth factor comprising H flanked by two L molecules) (designed binder)
chain: MKKTAIAIAVALAGFATVAQAAPKDNTEEVTIKANLIFANGSTQTAEFKGTFEKATSEAYAYADTLKKDNGEYTVDVADKGYTLNIKFAGKEATNRNTDGSTDYGILQINSRWGGLTLKEEVTIKANLIFANGSTQTAEFKGTFEKATSEAYAYADTLKKDNGEYTVDVADKGYTLNIKFAG
notes: also called LIIL [sic]
Q: Does B1 bind?
A: Result: no binding
